Results published in the DeepSol protein solubility set.

Experiment: soluble on expression in E. coli; label from the status in PepcDB or PDB records

Row | Sequence | soluble on expression in E. coli
1 | MSLMQEETFYSVRMRASMNGSHEDGGKHISGGERLIPFHEMKHTVNALLEKGLSHSRGKPDFMQIQFEEVHESIKTIQPLPVHTNEVSCPEEGQKLARLLLEKEGVSRDVIEKAYEQIPEWSDVRGAVLFDIHTGKRMDQTKEKGVRVSRMDWPDANFEKWALHSHVPAHSRIKEALALASKVSRHPAVVAELCWSDDPDYITGYVAGKKMGYQRITAMKEYGTEEGCRVFFIDGSNDVNTYIHDLEKQPILIEWEEDHDSEGHHHHHH | soluble
2 | MSLMTEMQQRAQLHRQIWKIADEVRGAVDGWDFKQYVLGTLFYRFISENFTDYMQAGDSSIDYAAMPDSIITPEIKDDAVKVKGYFIYPGQLFCNIAAEAHQNEELNTKLKEIFTAIESSASGYPSEQDIKGLFDDFDTTSSRLGSTVADKNKRLAAVLKGVAELDFGNFENHHIDLFGDAYEYLISNYAANAGKSGGEFFTPQSVSKLIARLAVHGQEKVNKIYDPACGSGSLLLQAKKQFDEHIIEEGFFGQEINHTTYNLARMNMFLHNVNYNQFHIELGDTLTNPKLKDSKPFDAIVSNPPYSINWIGSDDPTLINDDRFAPAGVLAPKSKADFAFILHALNYLSGRGRAAIVSFPGIFYRGGAEQKIRQYLVEGNYVETVIALAPNLFYGTGIAVNILVLSKHKDNTDIQFIDASGFFKKETNNNVLIEEHIAEIVKLFADKADVPHIAQNAAQQTVKDNGYNLAVSSYVEAEDTREIIDIKQLNAEIGETVAKIERLRREIDEVIAEIEAEGHHHHHH | soluble
3 | MSLNASAPIPLNETQRLLRIRELCVLENTSDDVFDEIVAMTADFFQTPIALISIVDEHRQWFRARVGLNAQETPRNVSFCAYTILSDSLFEIPDATLDDRFMNNSLVTGHPDIRYYAGAPLITDDGIALGSLCVIDTKPREPMSEHQMQMLKRFASLVMKRIVSLRLSCFIDQPTGLYNRSRLQEDIHQALLSSVDYQLVVVDMITSAFLNDIVKALGYSFSQDLVTEIKSRLEHLLPPTCSLYKVSPTRFGFLLPGERAPDHLFRTILEDFETPVECRGIPVQMQVGLGVVTLNRDPTEEQDWMRMVISAADDARDRNLGWAMYEPHFDAAQQRAFKLLSSLTSAVHSHDQLRLVYQPRIDLASGLCTSVEALLRWNHPTLGPIGPAEFVPLAEKTALMRPLSLWVLTSAIEQAARWQQQGFDFRIAINVTPEDLTGPAFTDRMIRLLGQHKIDPTRFELEFTEGALMHNPAEVRHQLERMRQMGMDVAIDDFGTGYSNWNYLRQLPATTVKLDQSLIRNLASDKTDQRLVKALIGLAKKLGYCVVAEGIETDEIRRLVKQWGCDEGQGYLISKPMEADAVLNWLGPDRRLQTVTEAAEAAVIRDKRLEGHHHHHH | soluble
4 | MSLNEEQLSKRLEKVASYITKNERIADIGSDHAYLPCFAVKNQTASFAIAGEVVDGPFQSAQKQVRSSGLTEQIDVRKGNGLAVIEKKDAIDTIVIAGMGGTLIRTILEEGAAKLAGVTKLILQPNIAAWQLREWSEQNNWLITSEAILREDNKVYEIMVLAPSEKPVTWTKQEIFFGPCLLKEQSAIFKSKWRHEANTWQNIIQTISNNQPVSTENQAKIRELEHKIALVEDVLKEGHHHHHH | soluble
5 | MSLNEHKHNYNMKINCLLALALSASSLAAQDAVIRVDAGKVENKITPYLYGACMEDVNHEIYGGLYDQKIFGESFEEPVSMDNFIGFTRCEGVWKLQDGQLSVQAHPGAKLVYDDTQLSDGTVGVDLKFTNGTSSSNNAGLLLRVGEYGGGADNFDGYEVSLFADGKRLLLGKHLHNWQELKTTPVDVDPMQWNRMEVKLDGDELVILLNDCEVLRFEDRDTGLRNGKVAFRNWGADVSYRSLTIGSNTPVKLLTKATPQVSGMWDAFADLTAAAVYKQIADKPFHGRYAQEIEYLVGTGKVGIANRSLNRWGISVRQGEKKTGSLYLKGKAEVRVALQSVDGEKEYAVQCIRANAGDWKKYTFELTPDKTDENARLAIYLEEKGRIQVDMVTLMNGADRQFCGLPLRNDIGQAMVDQGLRFLRYGGTMVNAPEYRFKKMIGDRAERPPYKGHWYTYSTNGFGIEDFLHFCEKAGFMPAYAVNVEESAQDMADMIEYLNGSVDTKWGKKRAENGHPEPYGLKYLEIGNEEVIWGDIEADYQHYIDRFNDIYEAVHAKDPEVQFIHSAWWRPESPNMEKVFKALDGKAAYWDYHPWTDDLGSHVNIDRELTDMKAKFLKWNPKTSMRCAIFEENGNLHNVQRAIVHATVQNVVRRHGDFILTTCAANALQPYLQNDNGWDQGQIFFTSGQVWGMPTFYAQQMSSAHHHPLRLWSETVGELDMTATTNEARDEVILHVVNTSSEVRETQVSLSGFIPKGNMEIYTLSGELNDENLPDTPTWILPKATWKQAPGSDFTYSFPGYSYTIVVLKEGHHHHHH | soluble
6 | MSLNEITLNVLYNLPGFTKFHQPLADEFMKKNPDVKINFLAPAAGYNEGQQQVLRSAVTGNLPDVYFSGYNLTAELVHTLAPRNQITDLGPFIQAEGGQAFLDKNYSPKMAALGQIDGKQYGLPVNASSPIIYINSDLVTKAGGDPDKMPTTFPELIALAKKIKALDPKFAGMSYDINGWPDDWLWQALVVEQGGKLVDDKTKTVAFDNEIGLNALKMTRQFVTEGGQNLLDWDQSRQQFGAGLTGFIFSTPAHVQTIQGLVGDRFKLKTATFPLDNKEKGGVPTGGNSAVILTQEKAKQDAAWKYLKWITGPEAQNTIVRITGYLPTNKLATGPDFLAPYYVENPNVKTASLQADRSLPWAGYPGGDSVRIWRTQRDIIGTVMRGEVTPEAGLKQIVEQTNALLKEGHHHHHH | soluble
7 | MSLNETYMMITFQSGMDYWKRCLKGFEDAAQALNVTVEYRGAAQYDIQEQITVLEQAIAKNPAGIAISAIDPVELTDTINKAVDAGIPIVLFDSGAPDSHAHSFLGTNNYNAGMNAAYKMAELLDGEGEVAVITLPNQLNHQERTTGFKETLEAEFPAIEVIAVEDGRGDSLHSRRVAHQLLEDYPNLAGIFATEANGGVGVGDAVRLESRAGEIQIISFDTDKGTLDLVDEGIISATLAQGTWNMGYWSLTYLFHLHHGLTEPQILQTREEAPLPLYVDTGITIVTDENVDYYYADEGHHHHHH | soluble
8 | MSLNGEGAVPTLVGYGADTAIETSRRTSRPLAAPVVRKLAKELAVDLAALQRGSGAGGVITRADVLAAARGGVGAGPDVRPVHGVHARMAEKMTLSHKEIPTAKASVEVICAELLRLRDRFVSAAPEITPFALTLRLLVIALKHNVILNSTWVDSGEGPQVHVHRGVHLGFGAATERGLLVPVVTDAQDKNTRELASRVAELITGAREGTLTPAELRGSTFTVSNFGALGVDDGVPVINHPEAAILGLGAIKPRPVVVGGEVVARPTMTLTCVFDHRVVDGAQVAQFMCELRDLIESPETALLDLEGHHHHHH | soluble
9 | MSLNIAKGEPVKITTIDVGNKSFPVKITFIDRKGVSYYIDVAMSRTNSGMEPADFQAEKRINYFPNAFSFTNPDVKTRESIQSKYIGQSVYPQKTIRVKQTELLRYTPLHIKDVQPEKAGTSATLLLTDIQGNTYQVKVDLKYDPILKNEDFIEDLFGFSDIRKKYPNISESNWLMLAKGEVKPGMTTEECKLAIGEPIEIRVRTDTRFETWLYRGKILEFENGILLRAKEGHHHHHH | soluble
10 | MSLNIETIVKGRRMITKFPPQWQEKLDQVAFTHLTPIQEQAFQPIVDGKNFLGISPTGTGKTLAYVFPSLLALTPKKSQQLLILAPNTELAGQIFEVTKDWAQPLGLTAQLFISGTSQKRQIERLKKGPEILIGTPGRIFELIKLKKIKMMSVNTIVLDEYDELLGDSQYDFVQKISHYVPRDHQMVYMSATNKVDQTSLAPNTFCIDLSEQTNDAIQHFYLMVDKRERTDLLRKFANIPHFRALVFFNSLSDLGATEERLQYNGAAAVSLASDINVKFRKTILEKFKSHQLSLLLATDLVARGIDIDNLDYVIHFDVARDKENYTHRAGRTGRMGKSGIVITFVSHPEDLKKLKKFAKVSEISLKNQQLHFINEGHHHHHH | not soluble
11 | MSLNIHIHSMTGFANAAAECGSKRINLDIRAVNHRFLDIQIRMPDDLRYLESGIREKISSHIARGKVECKIQIQDTENSRQSLELNSDLVNQLAEINKNLRKHHDLAKLGVADILRFPGVLASQRENTEELAKSITELTEKALKDFTAARRREGKKLGEHLLQRLESMEEIIDALSELFPTLLETHKEKIRARLVEAVGDINNDRLQQEFALFIQKSDIDEEFSRLRTHIAEVRRIVTEHKGSSGKRLDFLMQELNREANTLGSKSIAAECTQASVELKVLIEQMREQVQNIEEGHHHHHH | soluble
12 | MSLNIKEASEKSGVSADTIRYYERIGLIPPIHRNESGVRKFGAEDLRWILFTRQMRRAGLSIEALIDYLALFREGEHTLEARAELLKKQRIELKNRIDVMQEALDRLDFKIDNYEGHHHHHH | not soluble
13 | MSLNILIIAFEGIEGSGKTSHLEATKKYLEKEGYGVVTFGLQMSKLIGDRIAQVKRNIIFERRTLFLAYVTDLADQIENYVKPSIDSGFIALADGYTLTLTSWGLTRGLEKEWIDDVLSMLPKPSISLPLISTPDEIVRRIIKKRGYLDPLETGIDICIKEDTFEAYIDYINRFQEALMSISSRENIIYTDKEFDEVQKEIVRRIDNITEGHHHHHH | soluble
14 | MSLNINDALTSILASKKYRALCPDTVRRILTEEWGRHKSPKQTVEAARTRLHGICGAYVTPESLKAAAAALSAGDVKKALSLHASTKERLAELDTLYDFIFSAETPRRVLDIACGLNPLALYERGIASVWGCDIHQGLGDVITPFAREKDWDFTFALQDVLCAPPAEAGDLALIFKLLPLLEREQAGSAMALLQSLNTPRMAVSFPTRSLGGRGKGMEANYAAWFEGGLPAEFEIEDKKTIGTELIYLIKKNGEGHHHHHH | soluble
15 | MSLNKAMQEVNLEDSLKFFEQAANQPAALLKVQTQWWEQQLQIWQKVVLESKIQSIMEAEKGDKRFSHEAWQQDPFFNFIKQSYLLFSKTYLDTINAIEGLDEKAKERILFFSRQMINALSPSNFIATNPELLRLTLEKNGENLIAGLEQLKEDVASSADILKIRMTNNNAFRLGEDVANTPGEVVFKNEVFELIQYKPLTEQVAVTPLLIVPPFINKYYILDLREKNSMVRWLVEQGHSVFMISWRNPGAAQAQLNFEDYVLEGVVKAVNAIESITGQEQINAAGYCIGGTVLATTIAYYAAKRMKKRIKTASFFTTLLDFSQPGEVGAYINDTIIRAIELQNNAKGYMDGRSLSVTFSLLRENSLYWNYYVDNYLKGQSPVDFDLLYWNSDSTNVAGACHNFLLRELYLENKLVQDKGVKVGGVWIDLDKIKVPSYFISTKEDHIALWQGTYRGALRTGGNKTFVLGESGHIAGIVNHPDKRKYGYWVNDTLDDSAEDWLETAQHREGSWWVHWNEWLNGFADGSKVEPYPLGNADYPVLYSAPGEYVKQVLPIQEEGHHHHHH | soluble
